In assay [1] the target is T1, Mouse 4-1BB-Flag, on HEK293-6e cells (Mouse (Mus musculus), UniProt P20334 24-208).
T1 construct: also called CL#11063
The assay is described as follows: CellInsight cell binding, transfected HEK293-6e.

Assay [2] concerns the target T2, Cyno 4-1BB-Flag, on HEK293-6e cells (Cynomolgus (Macaca fascicularis)).
T2 construct: also called Cynomolgus 4-1BB; CL#11070
T2 chain: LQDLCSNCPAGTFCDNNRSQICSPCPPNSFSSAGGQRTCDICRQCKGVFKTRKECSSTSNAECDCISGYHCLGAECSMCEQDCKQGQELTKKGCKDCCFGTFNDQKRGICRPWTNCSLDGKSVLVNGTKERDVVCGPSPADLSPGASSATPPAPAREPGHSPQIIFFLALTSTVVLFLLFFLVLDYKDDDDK
The assay is described as follows: CellInsight cell binding, transfected HEK293-6e.

Assay [3] deals with T3, truncated human 4-1BB domain 3 and 4 only construct (residues 86-255), on cells (human, UniProt Q07011 86-255).
T3 construct: on 293E6 cells co-transfected with mouse 4-1BB; also called 4-1BB domain 3 and 4 only construct (amino acids 86-255)
T3 sequence (Q07011 86-255): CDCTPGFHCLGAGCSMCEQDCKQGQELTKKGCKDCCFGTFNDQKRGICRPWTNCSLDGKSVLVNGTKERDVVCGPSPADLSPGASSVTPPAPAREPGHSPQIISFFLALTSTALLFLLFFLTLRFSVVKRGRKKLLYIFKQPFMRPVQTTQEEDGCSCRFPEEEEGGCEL
The assay is described as follows: flow cytometry, transfected 293E6 cells.

Assay [4] concerns the target T4, human 4-1BB, full-length, expressed on cells (human, UniProt Q07011 24-255).
T4 construct: also called CD137; TNFRSF9
The assay is described as follows: flow cytometry, transfected 293E6 cells. (In flow cytometry, cells or beads pass a laser one at a time.)

Assay [5] addresses T5, 4-1BB dog (dog 4-1BB ECD-TEV-IgG1 Fc-10x His) (dog).
T5 construct: Uniprot E2R1R9 residues 24-186 fused to TEV site, IgG1 Fc and His tag
Nature of the assay: ELISA, coated 4-1BB-Fc.

For assay [6], the target named is T6, 4-1BB human (human 4-1BB ECD-TEV-IgG1 hinge-CH2-CH3-10x His) (human).
T6 construct: 4-1BB residues 24-186 fused to TEV site, IgG1 Fc and His tag; the entry is the whole fusion; also called soluble human 4-1BB-Fc
T6 sequence (chain, as listed by the source limits assumed): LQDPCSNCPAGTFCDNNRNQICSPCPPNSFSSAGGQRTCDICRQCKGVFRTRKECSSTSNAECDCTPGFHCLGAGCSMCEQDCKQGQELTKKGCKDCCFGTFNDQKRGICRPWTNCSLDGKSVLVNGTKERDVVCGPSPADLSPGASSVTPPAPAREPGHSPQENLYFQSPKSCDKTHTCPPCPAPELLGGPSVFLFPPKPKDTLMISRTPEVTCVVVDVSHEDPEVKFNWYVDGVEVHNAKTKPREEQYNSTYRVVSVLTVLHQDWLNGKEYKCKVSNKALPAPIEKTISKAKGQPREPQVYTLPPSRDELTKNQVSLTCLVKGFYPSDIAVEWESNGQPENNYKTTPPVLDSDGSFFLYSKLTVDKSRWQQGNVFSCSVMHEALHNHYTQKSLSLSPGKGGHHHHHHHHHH
The assay is described as follows: ELISA, coated 4-1BB-Fc. In general terms: In an ELISA, binding on a coated surface is turned into a signal by an enzyme label.

Assay [7] concerns the target T7, 4-1BB dog-human (human-dog chimeric 4-1BB ECD-TEV-IgG1 Fc-10x His) (human with dog residues in domain 4).
T7 construct: Human 4-1BB ECD with K115Q, C121R, R134Q, R154S and V156A (already in the entry); also called dog-human chimeric 4-1BB; hybrid 4-1BB
The assay is described as follows: ELISA, coated 4-1BB-Fc.

Assay [8] has as its target T8, purified human monomeric 4-1BB (human, UniProt Q07011 24-186).
T8 construct: the assay used the 4-1BB part released by Factor Xa with the Fc removed; also called h4-1BB; human 4-1BB
Nature of the assay: SPR, mean n=3.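 Further: antibodies captured on anti-human Fc chip, 4-1BB injected as five-point two-fold series from 40 nM by single-cycle kinetics at 25 °C, sensorgrams fitted to 1:1 Langmuir model.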

Assay [9] deals with T4, human 4-1BB, full-length, expressed on …. The assay is described as follows: flow cytometry, Jurkat-4-1BB.

T5 sequence (chain, as listed by the source limits assumed): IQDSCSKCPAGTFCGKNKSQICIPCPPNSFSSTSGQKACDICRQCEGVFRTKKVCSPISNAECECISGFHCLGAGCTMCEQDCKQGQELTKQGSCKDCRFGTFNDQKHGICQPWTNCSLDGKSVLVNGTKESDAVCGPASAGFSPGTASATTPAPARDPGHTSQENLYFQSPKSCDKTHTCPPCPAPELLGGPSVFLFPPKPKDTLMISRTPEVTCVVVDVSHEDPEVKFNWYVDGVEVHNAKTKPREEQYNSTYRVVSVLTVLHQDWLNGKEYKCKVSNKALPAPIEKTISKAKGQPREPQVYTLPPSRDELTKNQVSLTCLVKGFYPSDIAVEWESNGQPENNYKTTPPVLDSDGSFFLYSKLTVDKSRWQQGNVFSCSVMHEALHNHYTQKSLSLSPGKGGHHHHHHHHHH
T7 sequence (chain, as listed by the source mutant limits assumed): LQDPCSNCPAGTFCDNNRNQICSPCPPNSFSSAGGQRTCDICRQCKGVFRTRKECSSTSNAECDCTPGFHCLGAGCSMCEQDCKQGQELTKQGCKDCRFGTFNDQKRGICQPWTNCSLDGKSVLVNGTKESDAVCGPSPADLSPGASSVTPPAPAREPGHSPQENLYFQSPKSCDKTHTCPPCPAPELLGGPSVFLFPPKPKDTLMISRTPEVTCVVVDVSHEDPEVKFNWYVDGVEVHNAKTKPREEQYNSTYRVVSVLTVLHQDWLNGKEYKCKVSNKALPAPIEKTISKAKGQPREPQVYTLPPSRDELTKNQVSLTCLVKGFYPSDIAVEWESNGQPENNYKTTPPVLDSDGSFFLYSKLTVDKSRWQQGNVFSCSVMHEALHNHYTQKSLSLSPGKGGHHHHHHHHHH
T1 sequence (P20334 other isoform, or with tags, fused parts or gaps limits assumed): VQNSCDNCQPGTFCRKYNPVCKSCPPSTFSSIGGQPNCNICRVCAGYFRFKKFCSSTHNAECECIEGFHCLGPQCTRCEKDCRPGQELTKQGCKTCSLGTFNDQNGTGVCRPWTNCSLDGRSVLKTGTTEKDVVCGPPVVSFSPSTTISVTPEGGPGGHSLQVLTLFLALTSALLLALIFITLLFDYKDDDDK
T4 sequence (Q07011 24-255): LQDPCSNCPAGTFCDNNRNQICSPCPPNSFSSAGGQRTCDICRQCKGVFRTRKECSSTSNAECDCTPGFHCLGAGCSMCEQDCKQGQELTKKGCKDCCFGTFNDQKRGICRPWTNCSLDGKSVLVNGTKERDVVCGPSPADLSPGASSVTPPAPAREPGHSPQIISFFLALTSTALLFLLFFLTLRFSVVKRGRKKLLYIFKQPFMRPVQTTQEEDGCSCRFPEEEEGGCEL
T8 sequence (Q07011 other isoform, or with tags, fused parts or gaps limits assumed): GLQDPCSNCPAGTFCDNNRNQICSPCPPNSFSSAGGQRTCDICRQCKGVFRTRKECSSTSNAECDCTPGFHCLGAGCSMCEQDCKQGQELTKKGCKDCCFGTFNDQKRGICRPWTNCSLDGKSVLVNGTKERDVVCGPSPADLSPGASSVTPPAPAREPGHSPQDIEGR

B1: v20029 (antibody, human IgG1, kappa, L234A L235A, V domains shown)
VH: QVQLQESGGGLVKPGGSRKLSCAASGFTFSEFGMHWVRQAPDKGLEWVAYISSGSSTIYYADTVKGRFTISRDNAKNTLFLQMTSLRSEDTAMYYCARDWVDYWGQGTALTVSS
VL: NIVMTQSPKSMSMSVGERVTLSCKASENVGSYVSWYQQKPEKSPKLLIYGASNRYTGVPDRFTGSGSATDFTLTISSVQAEDLADYHCGQSYSYPLTFGAGTKLELKR
notes: Mouse-human chimera; also called 3E7
Turning to B1, the binding result is reported as “no binding” in assay [1]; “binds” in assay [2]; “no binding (tested: 2.5 µg of antibody)” in assay [3]; “binds” in assay [4]; “binds” in assay [5]; “binds” in [6].

B2: v20025 (antibody, human IgG1, kappa, L234A L235A, V domains shown)
VH: QVQLKQSGPGLVQPSQSLSITCTVSGFSLTSYGVHWVRQSPGKGLEWLGVIWSGGSTDYNAAFISRLSISKDNSKSQVFFKMNSLQADDTAIYYCARNPLTATVMDYWGQGTSVTVSS
VL: DIVMTQSQKFMSTSVGDRVSVTCKASQNVGTNVAWYQQKPGQSRTVLIYSASYRHSGVPDRFTGSGSGTDFTLTISNVQSEDLAEYFCQQYNSYPLTFGTGTKLELKR
notes: Mouse-human chimera; also called 2E8
Take B2: the binding result in [1] is on record as “no binding”; in assay [2], “binds”; in [3], “no binding (tested: 2.5 µg of antibody)”; in [4] it was “binds”; in assay [5], “no binding”; in assay [7] it was “binds”. Besides, the binding result in assay [6] is reported as “binds”.

B3: v20037 (antibody, human IgG1, kappa, L234A L235A, V domains shown)
VH: QVQLKESGPGLVAPSQSLSITCTVSGFSLTSYAISWVRQPPGKGLEWLGVIWPGGGTNYNSALKSRLSISKDNSKSQVFLKMNSLQTDDTARYYCARGTGTWYFDVWGAGTTVTVSS
VL: DIQMTQTTSSLSASLGDRVTISCSASQGISNYLNWYQQKPDGTVKLLIYYTSSLHSGVPSRFSGSGSGTDYSLTISNLEPEDIATYYCQQYSDLPWTFGGGTKLEIKR
notes: Mouse-human chimera; also called 6B3
For the molecule B3, the binding result in [1] is on record as “no binding”; in [3], “no binding (tested: 2.5 µg of antibody)”; in assay [4], “binds”; in [5], “no binding”; in assay [7] it was “binds”; in [6], “binds”.

B4: v20022 (antibody, human IgG1, kappa, L234A L235A, V domains shown)
VH: QVQLKESGPGLVAPSQSLSITCTVSGFSLTTYAISWVRQPPGKGLEWLGIIWPGGGTNYNSALKSRLSISKDNSRSQVFLKMNSLQTDDTARYYCARGAGTWYFDVWGAGTTVTVSS
VL: DIQMTQSTSSLSASVGDRVTISCSASQGISNYLNWYQQKPDGTVKLLIYYTSSLHSGVPSRFSGSGSGTDYSLTISNLEPEDIATYYCQQYSKFPWTFGGGTKLEIKR
notes: Mouse-human chimera; also called 1C8; 1C8 mouse-human parental chimera
For the molecule B4, the binding result in assay [1] is “no binding”; in assay [2] it was “binds”; in [3], “no binding (tested: 2.5 µg of antibody)”; in [5], “no binding”; in [7] it was “binds”; in [6], “binds”. The affinity in assay [8], expressed as Kd, was 0.582 µM. Besides, the EC50 in [9] was 0.0173 µM.

B5: v20032 (antibody, human IgG1, kappa, L234A L235A, V domains shown)
VH: QVQLKESGPGLVAPSQSLSITCTVSGFSLTSYAINWVRQPPGKGLEWLGVLWPGGGTNYNSALKSRLSISKDNSKSQVFLKMNSLQTDDTARYYCARGSGTWYFDVWGAGTTVTVSS
VL: DIQMTQTTSSLSASLGDRVTFSCSASQGISNYLNWYQQKPDGTVKLLIYYTSSLHLGVPSRFSGSGSGTDYSLTISNLEPEDIATYYCQQYSKLPWTFGGGTKLEIKR
notes: Mouse-human chimera; also called 4E6
In the case of B5, the binding result is recorded as “no binding” in assay [1]; “no binding (tested: 2.5 µg of antibody)” in [3]; “binds” in assay [4]; “no binding” in [5]; “binds” in [7]; “binds” in [6].

As usually defined, the Kd is the free concentration of one partner at which half of the binding sites on the other are occupied at equilibrium, for simple one-to-one binding. By EC50 is commonly meant the concentration giving half of the maximal effect. Read a high EC50 as a less potent agent.

The values are drawn from patent US20230052369A1 (Zymeworks, published 2023).
